# Measured values from US20210246166A1 (Bayer, published 2021).
# Numbered stars: 1 amine (or outer) side, 2 acyl side, 3 side chain; on linkers, the order of the positions; unused ones are H or OH. Bridge positions count the residues as written; N and C are the ends. Square brackets hold non-standard residues; d marks the D form. Ends that are not written are not given here. * marks the point of attachment. X5 = Tetrahydropyranyl‑4‑acetic acid, O=C(CC1CCOCC1)*; Oic = O=C(O)[C@@H]1C[C@@H]2CCCC[C@@H]2N1; βPro(3R) = O=C([C@@H]1CCN([*:1])C1)[*:2]; tBuAla = CC(C)(C)C[C@H](N)C(=O)O; Abu(4-CN) = N#CCC[C@H](N)C(=O)O; Aad = N[C@@H](CCCC(=O)O)C(=O)O; Pen = CC(C)(S)[C@H](N)C(=O)O; Tranexamic = tranexamic acid; NMeC = CN[C@@H](CS)C(=O)O; NPhGly = O=C(O)CNc1ccccc1; Abu = CC[C@H](N)C(=O)O; PEG2 = NCCOCCOCCC(=O)O; βAla = NCCC(=O)O; Sar = CNCC(=O)O
# T1: recombinant human MASP1 active protease (amino acids 297-699, C-terminal His Tag) (human, UniProt P48740 297-699)
# T1 sequence: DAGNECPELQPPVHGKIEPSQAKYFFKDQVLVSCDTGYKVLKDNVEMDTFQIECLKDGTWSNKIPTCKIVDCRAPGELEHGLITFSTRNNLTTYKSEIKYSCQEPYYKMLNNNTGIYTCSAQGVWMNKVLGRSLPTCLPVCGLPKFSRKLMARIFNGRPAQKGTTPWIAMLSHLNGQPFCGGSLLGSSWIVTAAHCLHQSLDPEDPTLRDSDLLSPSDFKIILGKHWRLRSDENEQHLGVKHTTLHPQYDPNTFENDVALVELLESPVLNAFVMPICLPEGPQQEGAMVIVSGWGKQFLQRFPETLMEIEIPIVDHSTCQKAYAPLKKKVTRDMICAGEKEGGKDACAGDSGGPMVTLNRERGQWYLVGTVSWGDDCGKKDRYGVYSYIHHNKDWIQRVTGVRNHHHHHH
# T2: recombinant rat MASP1 active protease (amino acids 302-704, C-terminal His Tag) (rat, UniProt Q8CHN8 302-704)
# T2 sequence: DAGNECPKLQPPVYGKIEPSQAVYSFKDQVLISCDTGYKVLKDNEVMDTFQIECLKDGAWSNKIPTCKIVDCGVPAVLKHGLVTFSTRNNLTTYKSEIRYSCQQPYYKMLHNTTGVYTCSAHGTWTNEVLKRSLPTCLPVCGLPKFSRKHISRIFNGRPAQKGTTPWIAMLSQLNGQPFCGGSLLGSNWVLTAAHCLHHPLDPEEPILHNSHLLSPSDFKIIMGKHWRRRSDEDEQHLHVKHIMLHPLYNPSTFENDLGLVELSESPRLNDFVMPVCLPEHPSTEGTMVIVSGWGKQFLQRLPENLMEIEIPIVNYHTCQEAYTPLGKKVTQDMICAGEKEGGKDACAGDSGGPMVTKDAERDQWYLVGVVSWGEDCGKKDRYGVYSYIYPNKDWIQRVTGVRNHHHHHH
# Assays:
# Assay in all cases: cell-based or functional assay
# [1] = molecular target: T1, recombinant human MASP1 active protease …
# [2] = molecular target: recombinant human MASP2 active protease (amino acids 297-686, C-terminal His Tag) (human, UniProt O00187 297-686)
# recombinant human MASP2 active protease (amino acids 297-686, C-terminal His Tag), sequence (O00187 other isoform, or with tags, fused parts or gaps limits assumed): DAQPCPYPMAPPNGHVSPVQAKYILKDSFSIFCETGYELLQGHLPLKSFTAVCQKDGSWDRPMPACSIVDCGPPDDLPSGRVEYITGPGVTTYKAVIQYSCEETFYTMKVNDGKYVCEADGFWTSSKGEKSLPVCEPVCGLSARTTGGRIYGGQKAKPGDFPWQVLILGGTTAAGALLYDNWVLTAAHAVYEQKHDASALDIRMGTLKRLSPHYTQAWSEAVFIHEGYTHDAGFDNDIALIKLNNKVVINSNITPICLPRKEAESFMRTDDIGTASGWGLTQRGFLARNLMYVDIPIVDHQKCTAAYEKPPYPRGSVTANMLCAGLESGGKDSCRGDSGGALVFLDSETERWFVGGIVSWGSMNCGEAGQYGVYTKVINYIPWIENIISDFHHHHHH
# [3] = molecular target: T2, recombinant rat MASP1 active protease …
# [4] = molecular target: recombinant rat MASP2 active protease (amino acids 296-685, C-terminal His Tag) (rat, UniProt Q9JJS8 296-685)
# recombinant rat MASP2 active protease (amino acids 296-685, C-terminal His Tag), sequence (Q9JJS8 other isoform, or with tags, fused parts or gaps limits assumed): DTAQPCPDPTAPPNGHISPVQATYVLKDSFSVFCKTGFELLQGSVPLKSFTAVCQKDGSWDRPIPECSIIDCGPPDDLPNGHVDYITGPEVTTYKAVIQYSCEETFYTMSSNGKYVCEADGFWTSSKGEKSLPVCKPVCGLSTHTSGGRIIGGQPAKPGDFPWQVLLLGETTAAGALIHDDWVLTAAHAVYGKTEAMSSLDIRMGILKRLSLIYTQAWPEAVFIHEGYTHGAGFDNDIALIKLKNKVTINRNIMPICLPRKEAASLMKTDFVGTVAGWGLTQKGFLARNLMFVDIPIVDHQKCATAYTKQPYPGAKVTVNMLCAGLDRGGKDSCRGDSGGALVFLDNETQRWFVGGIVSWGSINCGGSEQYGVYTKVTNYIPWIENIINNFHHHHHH
human MASP1 IC50 [1] [nM],human MASP2 IC50 [2] [nM],rat MASP1 IC50 [3] [nM],rat MASP2 IC50 [4] [nM],Binder
22,1800,,,[Sar]ICSRS[Abu(4-CN)]PPI[Pen]IPD-NH2 (disulfide 3-11; N-terminus assumed; SMILES CC[C@H](C)[C@H](NC(=O)CNC)C(=O)N[C@H]1CSSC(C)(C)[C@@H](C(=O)N[C@H](C(=O)N2CCC[C@H]2C(=O)N[C@@H](CC(=O)O)C(N)=O)[C@@H](C)CC)NC(=O)[C@H]([C@@H](C)CC)NC(=O)[C@@H]2CCCN2C(=O)[C@@H]2CCCN2C(=O)[C@H](CCC#N)NC(=O)[C@H](CO)NC(=O)[C@H](CCCNC(=N)N)NC(=O)[C@H](CO)NC1=O) [Example 321: ((N-Me)G)-IC+SRS-(Cnba)-PPI-(Pen)+IPD-NH2]
22,610,,,[Sar]ICSRSLPPICIPD-OH (disulfide 3-11; also: HCl salt) [Example 318: ((N-Me)G)-IC+SRSLPPIC+IPD-OH (HCl- Salt)]
,,24.2,17.6,[Sar]ICSRSLP[Oic]I[Pen]IP[βPro(3R)]-OH (disulfide 3-11; N-terminus assumed; SMILES CC[C@H](C)[C@H](NC(=O)CNC)C(=O)N[C@H]1CSSC(C)(C)[C@@H](C(=O)N[C@H](C(=O)N2CCC[C@H]2C(=O)N2CC[C@@H](C(=O)O)C2)[C@@H](C)CC)NC(=O)[C@H]([C@@H](C)CC)NC(=O)[C@@H]2C[C@@H]3CCCC[C@@H]3N2C(=O)[C@@H]2CCCN2C(=O)[C@H](CC(C)C)NC(=O)[C@H](CO)NC(=O)[C@H](CCCNC(=N)N)NC(=O)[C@H](CO)NC1=O) [Example 532: ((N-Me)G)-IC+SRSLP-(Oic)-I-(Pen)+IP-((R)-Pyrrolidine-3-carboxylic acid)-OH]
19,9.4,,,X5-ICSRS[tBuAla]PPI[NMeC]I-NH2 (disulfide 2-10; SMILES CC[C@H](C)[C@H](NC(=O)[C@@H]1CSSC[C@H](NC(=O)[C@@H](NC(=O)CC2CCOCC2)[C@@H](C)CC)C(=O)N[C@@H](CO)C(=O)N[C@@H](CCCNC(=N)N)C(=O)N[C@@H](CO)C(=O)N[C@@H](CC(C)(C)C)C(=O)N2CCC[C@H]2C(=O)N2CCC[C@H]2C(=O)N[C@@H]([C@@H](C)CC)C(=O)N1C)C(N)=O) [Example 305: (Tetrahydropyranyl-4-acetic acid)-IC+SRS-((tBu)A)-PPI-((N-Me)C)+I-NH2]
22,18,,,[Tranexamic]ICSRS[tBuAla]PPI[NMeC]IPD-NH2 (disulfide 3-11) [Example 319: (Tranexamic)-IC+SRS-((tBu)A)-PPI-((N-Me)C)+IPD-NH2]
20,3000,,,[Sar]I[Pen]SRS[tBuAla]PPICIP-NH2 (disulfide 3-11; N-terminus assumed; SMILES CC[C@H](C)[C@H](NC(=O)CNC)C(=O)N[C@@H]1C(=O)N[C@@H](CO)C(=O)N[C@@H](CCCNC(=N)N)C(=O)N[C@@H](CO)C(=O)N[C@@H](CC(C)(C)C)C(=O)N2CCC[C@H]2C(=O)N2CCC[C@H]2C(=O)N[C@@H]([C@@H](C)CC)C(=O)N[C@H](C(=O)N[C@H](C(=O)N2CCC[C@H]2C(N)=O)[C@@H](C)CC)CSSC1(C)C) [Example 310: ((N-Me)G)-I-(Pen)+SRS-((tBu)A)-PPI-C+IP-NH2]
20,450,,,[βAla]ICSRSLPPICIPD-OH (disulfide 3-11; N-terminus assumed; SMILES CC[C@H](C)[C@H](NC(=O)CCN)C(=O)N[C@H]1CSSC[C@@H](C(=O)N[C@H](C(=O)N2CCC[C@H]2C(=O)N[C@@H](CC(=O)O)C(=O)O)[C@@H](C)CC)NC(=O)[C@H]([C@@H](C)CC)NC(=O)[C@@H]2CCCN2C(=O)[C@@H]2CCCN2C(=O)[C@H](CC(C)C)NC(=O)[C@H](CO)NC(=O)[C@H](CCCNC(=N)N)NC(=O)[C@H](CO)NC1=O) [Example 306: (beta-A)-IC+SRSLPPIC+IPD-OH]
20,49,,,[NPhGly]ICSRS[tBuAla]PPI[Pen]IP-NH2 (disulfide 3-11; N-terminus assumed; SMILES CC[C@H](C)[C@H](NC(=O)CNc1ccccc1)C(=O)N[C@H]1CSSC(C)(C)[C@@H](C(=O)N[C@H](C(=O)N2CCC[C@H]2C(N)=O)[C@@H](C)CC)NC(=O)[C@H]([C@@H](C)CC)NC(=O)[C@@H]2CCCN2C(=O)[C@@H]2CCCN2C(=O)[C@H](CC(C)(C)C)NC(=O)[C@H](CO)NC(=O)[C@H](CCCNC(=N)N)NC(=O)[C@H](CO)NC1=O) [Example 311: ((N-Ph)G)-IC+SRS-((tBu)A)-PPI-(Pen)+IP-NH2]
19,27,,,{Tetrahydro‑2H‑pyran‑3‑ylacetic acid}-ICSRSLP[Oic]I[Pen]IP-NH2 (disulfide 2-10) [Example 304: (Tetrahydro-2H-pyran-3-ylacetic acid)-IC+SRSLP-(Oic)-I-(Pen)+IP-NH2]
21,530,,,[Sar]ICSRSLPPICIP[dD]-OH (disulfide 3-11; N-terminus assumed; SMILES CC[C@H](C)[C@H](NC(=O)CNC)C(=O)N[C@H]1CSSC[C@@H](C(=O)N[C@H](C(=O)N2CCC[C@H]2C(=O)N[C@H](CC(=O)O)C(=O)O)[C@@H](C)CC)NC(=O)[C@H]([C@@H](C)CC)NC(=O)[C@@H]2CCCN2C(=O)[C@@H]2CCCN2C(=O)[C@H](CC(C)C)NC(=O)[C@H](CO)NC(=O)[C@H](CCCNC(=N)N)NC(=O)[C@H](CO)NC1=O) [Example 312: ((N-Me)G)-IC+SRSLPPIC+IPd-OH]
22,210,,,[Sar]ICSRSLPPICID-NH2 (disulfide 3-11; N-terminus assumed; SMILES CC[C@H](C)[C@H](NC(=O)CNC)C(=O)N[C@H]1CSSC[C@@H](C(=O)N[C@H](C(=O)N[C@@H](CC(=O)O)C(N)=O)[C@@H](C)CC)NC(=O)[C@H]([C@@H](C)CC)NC(=O)[C@@H]2CCCN2C(=O)[C@@H]2CCCN2C(=O)[C@H](CC(C)C)NC(=O)[C@H](CO)NC(=O)[C@H](CCCNC(=N)N)NC(=O)[C@H](CO)NC1=O) [Example 317: ((N-Me)G)-IC+SRSLPPIC+ID-NH2]
21,660,,,ICSRS[tBuAla]PPI[Pen]IP-NH2 (disulfide 2-10; N-terminus assumed; SMILES CC[C@H](C)[C@H](N)C(=O)N[C@H]1CSSC(C)(C)[C@@H](C(=O)N[C@H](C(=O)N2CCC[C@H]2C(N)=O)[C@@H](C)CC)NC(=O)[C@H]([C@@H](C)CC)NC(=O)[C@@H]2CCCN2C(=O)[C@@H]2CCCN2C(=O)[C@H](CC(C)(C)C)NC(=O)[C@H](CO)NC(=O)[C@H](CCCNC(=N)N)NC(=O)[C@H](CO)NC1=O) [Example 316: IC+SRS-((tBu)A)-PPI-(Pen)+IP-NH2]
21,250,,,[Sar]ICSRSLPPICI[Abu]D-OH (disulfide 3-11; N-terminus assumed; SMILES CC[C@H](NC(=O)[C@@H](NC(=O)[C@@H]1CSSC[C@H](NC(=O)[C@@H](NC(=O)CNC)[C@@H](C)CC)C(=O)N[C@@H](CO)C(=O)N[C@@H](CCCNC(=N)N)C(=O)N[C@@H](CO)C(=O)N[C@@H](CC(C)C)C(=O)N2CCC[C@H]2C(=O)N2CCC[C@H]2C(=O)N[C@@H]([C@@H](C)CC)C(=O)N1)[C@@H](C)CC)C(=O)N[C@@H](CC(=O)O)C(=O)O) [Example 313: ((N-Me)G)-IC+SRSLPPIC+I-(Abu)-D-OH]
22,190,,,[PEG2]AICSRS[tBuAla]PPI[Pen]IPD-NH2 (disulfide 4-12; N-terminus assumed; SMILES CC[C@H](C)[C@H](NC(=O)[C@H](C)NC(=O)CCOCCOCCN)C(=O)N[C@H]1CSSC(C)(C)[C@@H](C(=O)N[C@H](C(=O)N2CCC[C@H]2C(=O)N[C@@H](CC(=O)O)C(N)=O)[C@@H](C)CC)NC(=O)[C@H]([C@@H](C)CC)NC(=O)[C@@H]2CCCN2C(=O)[C@@H]2CCCN2C(=O)[C@H](CC(C)(C)C)NC(=O)[C@H](CO)NC(=O)[C@H](CCCNC(=N)N)NC(=O)[C@H](CO)NC1=O) [Example 320: (PEG1(10 atoms))-AIC+SRS-((tBu)A)-PPI-(Pen)+IPD-NH2]
21,260,,,AICSRS[Aad]PPI[NMeC]IPD-NH2 (disulfide 3-11; N-terminus assumed; SMILES CC[C@H](C)[C@H](NC(=O)[C@H](C)N)C(=O)N[C@H]1CSSC[C@@H](C(=O)N[C@H](C(=O)N2CCC[C@H]2C(=O)N[C@@H](CC(=O)O)C(N)=O)[C@@H](C)CC)N(C)C(=O)[C@H]([C@@H](C)CC)NC(=O)[C@@H]2CCCN2C(=O)[C@@H]2CCCN2C(=O)[C@H](CCCC(=O)O)NC(=O)[C@H](CO)NC(=O)[C@H](CCCNC(=N)N)NC(=O)[C@H](CO)NC1=O) [Example 314: AIC+SRS-(AAD)-PP-I-((N-Me)C)+IPD-NH2]
